Data as given in patent US20090035818A1 (NATIONAL UNIVERSITY OF CORPORATION HIROSHIMA UNIVERSITY, published 2009).

Columns and labels:
[1] = molecular target: T1, chicken egg yolk antibody (chicken IgY antibody) (chicken); test: SPR (Biacore 2000), chicken IgY on CM5 chip, lectin as analyte
T1 construct: Purified from egg yolk with the Eggcellent Chicken IgY Purification Kit (Pierce)
Text: Assessment was made as to affinity of the different types of lectins and chicken egg yolk antibody (chicken IgY antibody). Briefly, using Biacore 2000 (BIACORE) that employs the principle of surface plasmon resonance method (hereinafter, “SPR method”), chicken egg yolk antibodies (chicken IgY antibodies) were immobilized as ligands on a sensor chip, and measurements were made according to manuals using each type of lectin solution as an analyte. The SPR technique allows for measurement of specific interactions between biomolecules both quickly and quantitatively, without labeling the biomolecules. According to this technique, the ligands are immobilized on a surface of the sensor chip, which is then supplemented with a solution of substance (analyte) that acts on the ligand. Slight changes in mass caused by the binding and dissociation of the molecules are then detected as changes in SPR signals. The mass change is represented by resonance unit (RU). One thousand RU is equivalent to a change in reflection angle of 0.1° caused by resonance, and it means that the analyte has bound to the ligand at 1 ng/mm². The surface of the sensor chip is coated with dextran, and the ligands are immobilized primarily via carboxyl groups that have been introduced into the dextran.
Affinity between each glycoprotein and each lectin was analyzed by SPR technique. Prior to analysis, preliminary analyses were made to assess analysis methods. […] An analysis program was created using “Customized Application” according to the manual, and a subtraction function was used in which subtraction was made from flow cells that had glycoproteins immobilized thereon, from among four flow cells in the sensor chip. […] Under this analysis program, each analyte (lectin) solution was flown on the sensor chip at a flow rate of 30 μl/min for 3 minutes, and buffer was flown for 3 minutes to measure the amount of lectin that had bonded/dissociated.

asialomucin = asialomucin (bovine); test: cell-based or functional assay
asialofetuin = molecular target: T2, asialofetuin (calf, UniProt P12763 19-359, sugar chains desialylated); test: cell-based or functional assay
T2 sequence (looked up): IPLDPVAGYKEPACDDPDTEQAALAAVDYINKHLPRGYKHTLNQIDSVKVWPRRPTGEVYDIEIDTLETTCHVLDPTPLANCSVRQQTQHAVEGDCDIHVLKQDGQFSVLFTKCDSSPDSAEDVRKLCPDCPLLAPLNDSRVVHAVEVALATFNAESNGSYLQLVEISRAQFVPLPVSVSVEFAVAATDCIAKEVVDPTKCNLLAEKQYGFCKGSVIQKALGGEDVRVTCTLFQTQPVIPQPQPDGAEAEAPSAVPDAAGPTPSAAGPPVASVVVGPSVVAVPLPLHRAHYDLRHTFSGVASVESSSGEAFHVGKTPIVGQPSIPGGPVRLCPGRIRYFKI

asialotransferrin = asialotransferrin (human, UniProt P02787 20-698, sugar chains desialylated by dilute acid treatment; only complex-type sugar chain); test: cell-based or functional assay
[2] = molecular target: mucin (bovine submaxillary gland) (bovine); test: cell-based or functional assay
transferrin (human) = transferrin (human) (human, UniProt P02787 20-698); test: cell-based or functional assay
[3] = molecular target: T3, fetuin (type III, calf serum) (calf, UniProt P12763 19-359); test: cell-based or functional assay
T3 sequence (looked up): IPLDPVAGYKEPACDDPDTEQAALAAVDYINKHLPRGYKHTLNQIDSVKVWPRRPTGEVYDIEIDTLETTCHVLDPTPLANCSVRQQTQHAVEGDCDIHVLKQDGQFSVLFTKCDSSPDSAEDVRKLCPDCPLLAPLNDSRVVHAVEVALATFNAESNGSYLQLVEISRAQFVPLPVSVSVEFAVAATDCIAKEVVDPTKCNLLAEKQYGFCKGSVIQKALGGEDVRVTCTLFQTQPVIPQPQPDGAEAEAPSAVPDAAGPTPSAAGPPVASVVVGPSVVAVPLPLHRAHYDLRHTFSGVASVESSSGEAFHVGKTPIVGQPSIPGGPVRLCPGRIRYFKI

Sequence of asialotransferrin (P02787 20-698 limits assumed): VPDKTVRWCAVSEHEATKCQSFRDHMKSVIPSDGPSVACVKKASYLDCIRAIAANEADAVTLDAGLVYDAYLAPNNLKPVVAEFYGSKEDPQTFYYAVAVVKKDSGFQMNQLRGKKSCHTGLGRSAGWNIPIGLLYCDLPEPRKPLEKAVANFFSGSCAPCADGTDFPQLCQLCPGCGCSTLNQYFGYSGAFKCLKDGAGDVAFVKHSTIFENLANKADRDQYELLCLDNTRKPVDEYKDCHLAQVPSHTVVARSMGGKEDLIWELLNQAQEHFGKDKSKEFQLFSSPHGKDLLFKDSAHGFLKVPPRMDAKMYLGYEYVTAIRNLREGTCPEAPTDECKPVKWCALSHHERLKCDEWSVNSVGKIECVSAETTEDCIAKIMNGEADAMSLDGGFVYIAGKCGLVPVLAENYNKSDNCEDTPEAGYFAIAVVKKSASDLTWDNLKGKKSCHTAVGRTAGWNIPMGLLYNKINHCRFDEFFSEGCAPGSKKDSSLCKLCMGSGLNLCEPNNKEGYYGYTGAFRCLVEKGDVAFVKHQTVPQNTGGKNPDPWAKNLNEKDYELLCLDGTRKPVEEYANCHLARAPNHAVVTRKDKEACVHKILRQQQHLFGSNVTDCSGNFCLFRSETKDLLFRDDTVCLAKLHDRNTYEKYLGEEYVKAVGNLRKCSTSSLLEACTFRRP
Sequence of transferrin (human) (P02787 20-698 limits assumed): as above

| Binder | Ka [1] | Kd [1] | koff [1] | kon [1] | Minimum inhibitory concentration (hemagglutination inhibition, trypsin-treated rabbit erythrocytes) (asialomucin) | Minimum inhibitory concentration (hemagglutination inhibition, trypsin-treated rabbit erythrocytes) (asialofetuin) | Minimum inhibitory concentration (hemagglutination inhibition, trypsin-treated rabbit erythrocytes) (asialotransferrin) | Minimum inhibitory concentration (hemagglutination inhibition, trypsin-treated rabbit erythrocytes) [2] | Minimum inhibitory concentration (hemagglutination inhibition, trypsin-treated rabbit erythrocytes) (transferrin (human)) | Minimum inhibitory concentration (hemagglutination inhibition, trypsin-treated rabbit erythrocytes) [3] |
| --- | --- | --- | --- | --- | --- | --- | --- | --- | --- | --- |
| Eucheuma serra-derived lectin ESA-2 (other) GRYTVQNQWGGSSAPWNDAGLWILGSRGNQNVMAVDVNSSDGGANLNGTMTYSGEGPIGFKGARRGESNVYDVENQWGGSSAPWHAGGQFVIGSRSGQGVLAVNITSSDGGKTLTGTMTYEREGPIGFKGTQSGGDTYNVENQWGGSSAPWNKAGIWALGDRSGQAMIAMDVSSSDGGKTLEGTMQYKGEGPIGFRGKLSGANNYSVENQWGGSSAPWNAAGDWLIGDRHNQNITAVKVSSDNDGKNLDGTCTYEREGPIGFKGVATS | 7.73e+07 M⁻¹ | 12.9 nM | 0.00455 s⁻¹ | 352000 M⁻¹ s⁻¹ | – | – | – | – | – | – |
| BML-17 (other, also called polypeptide isolated from Bryopsis maxima; BML-17 column (immobilised form)) VIYQDPVTSDMFAKIPMPGHRGPWYVCHSSGDWSRNEPVFGRCAIDAKGMVEAYFPYGGKDIKWPSRWSAVITTGVYWGKYNDWKQADCNGGQQVVDGGRGAVTVRMDGISECKGWTTGKSSHNEVWFGCNGKEVGSWISDTPASDVFPICQEYGAAVKIVHMGRAFN | 8.36e+07 M⁻¹ | 12 nM | 0.00586 s⁻¹ | 490000 M⁻¹ s⁻¹ | 250 µg/mL | 500 µg/mL | 1000 µg/mL | 250 µg/mL | 2000 µg/mL | 1000 µg/mL |
